Laboratory results from the supplement of paper PMC10567573.

B1: PDS5B (parent)
chain: ITYPPGVKEISDKISKEEMVRRLK
B2: GNAI1 (parent)
chain: WIHCFEGVTAIIFCVALSDYDLVL

Variants of: B1
Assay: protein stability index of a GFP-peptide fusion (GPS, HEK-293T) (PSI 1-6); higher = more stable
Settings: c terminus: a fixed tail appended
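Further: lentivirally expressed fusions sorted by FACS into six bins by GFP to DsRed ratio, PSI derived from sequencing read proportions per bin multiplied by bin number.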

Row | Variant | protein stability index
1 | ITYPPGVKEISDKISKEEMVRRLL [K24L] | 2.81
2 | ITYPPGVKEISDKISKEEMVRRLG [K24G] | 3.77
3 | ITYPPGVKEISDKISKEEMVRRLE [K24E] | 4.38
4 | ITYPPGVKEILDKISKEEMVRRLK [S11L] | 2.38
5 | ITYPPGVKEIIDKISKEEMVRRLK [S11I] | 2.83
6 | ITYPPGVKEIRDKISKEEMVRRLK [S11R] | 3.4
7 | ITYPPGVKEIFDKISKEEMVRRLK [S11F] | 3.3
8 | ITYPPGVKEINDKISKEEMVRRLK [S11N] | 3.98
9 | ITYPPGVKEIADKISKEEMVRRLK [S11A] | 3.85
10 | ITYPPGVKEIWDKISKEEMVRRLK [S11W] | 2.67
11 | ITYPPGVKEIQDKISKEEMVRRLK [S11Q] | 4.16
12 | ITYPPGVKEIHDKISKEEMVRRLK [S11H] | 4.04
13 | ITYPPGVKEICDKISKEEMVRRLK [S11C] | 3.94
14 | ITYPPGVKEISDKISKEEMVDRLK [R21D] | 4.46
15 | ITYPPGVKEISDKISKEEMVIRLK [R21I] | 3.41
16 | ITYPPGVKEISDKISKEEMVHRLK [R21H] | 3.77
17 | ITYPPGVKEISDKISKEEMVARLK [R21A] | 2.21
18 | ITYPPGVKEISDKISKEEMVMRLK [R21M] | 3.97
19 | ITYPPGVKEISDKISKEEMVPRLK [R21P] | 4.52
20 | ITYPPGVKEISDKISKEEMVERLK [R21E] | 3.69

Row | Variant | protein stability index
21 | ITYPPGVKELSDKISKEEMVRRLK [I10L] | 4.33
22 | ITYPPGVKEYSDKISKEEMVRRLK [I10Y] | 4.44
23 | ITYPPGVKEDSDKISKEEMVRRLK [I10D] | 4.88
24 | ITYPPGVKEHSDKISKEEMVRRLK [I10H] | 3.62
25 | ITYPPGVKEASDKISKEEMVRRLK [I10A] | 4.03
26 | ITYPPGVKEISDVISKEEMVRRLK [K13V] | 3.51
27 | ITYPPGVKEISDIISKEEMVRRLK [K13I] | 4.1
28 | ITYPPGVKEISDQISKEEMVRRLK [K13Q] | 4.33
29 | ITYPPGVKEISDFISKEEMVRRLK [K13F] | 3.42
30 | ITYPPGVKEISDTISKEEMVRRLK [K13T] | 3.96
31 | ITYPPGVKEISDNISKEEMVRRLK [K13N] | 3.72
32 | ITYPPGVKEISDKISDEEMVRRLK [K16D] | 3.56
33 | ITYPPGVKEISDKISVEEMVRRLK [K16V] | 3.36
34 | ITYPPGVKEISDKISCEEMVRRLK [K16C] | 3.87
35 | ITYPPGVKEISDKISAEEMVRRLK [K16A] | 3.92
36 | ITYPPGVKEISDKISTEEMVRRLK [K16T] | 3.06
37 | ITYPPGVKEISDKISNEEMVRRLK [K16N] | 2.63
38 | ITYIPGVKEISDKISKEEMVRRLK [P4I] | 1.94
39 | ITYNPGVKEISDKISKEEMVRRLK [P4N] | 3.43
40 | HTYPPGVKEISDKISKEEMVRRLK [I1H] | 5.04

Row | Variant | protein stability index
41 | MTYPPGVKEISDKISKEEMVRRLK [I1M] | 4.9
42 | VTYPPGVKEISDKISKEEMVRRLK [I1V] | 4.62
43 | GTYPPGVKEISDKISKEEMVRRLK [I1G] | 3.81
44 | DTYPPGVKEISDKISKEEMVRRLK [I1D] | 4.99
45 | TTYPPGVKEISDKISKEEMVRRLK [I1T] | 4.96
46 | STYPPGVKEISDKISKEEMVRRLK [I1S] | 4.78
47 | ITYPPGVKEISDKFSKEEMVRRLK [I14F] | 3.03
48 | ITYPPGVKEISDKYSKEEMVRRLK [I14Y] | 2.68
49 | ITYPPGVKEISDKQSKEEMVRRLK [I14Q] | 5.02
50 | ITYPPGVKEISDKSSKEEMVRRLK [I14S] | 4.86
51 | ITYPPGVKEISDKCSKEEMVRRLK [I14C] | 3.27
52 | ITYPPGVKEISDKISKEESVRRLK [M19S] | 5.02
53 | ITYPPGVKEISDKISKEEAVRRLK [M19A] | 3.68
54 | ITYPPGVKEISDKISKEEFVRRLK [M19F] | 3.26
55 | ITYPPGVKEISDKISKEETVRRLK [M19T] | 4.99
56 | ITYPPGVKEISDKISKEEVVRRLK [M19V] | 4.65
57 | ITYPPGVKEISDKISKWEMVRRLK [E17W] | 2.75
58 | ITYPPGVKEISDKISKSEMVRRLK [E17S] | 3.68
59 | ITYPPGVKEISDKISKQEMVRRLK [E17Q] | 3.17
60 | ITYPPGVKEISDKISKFEMVRRLK [E17F] | 2.41

Variants of: B2
Assay: as above
Settings: c terminus: a fixed tail appended

Row | Variant | protein stability index
61 | WIHCFEGVTAIIFCVALSDYDPVL [L22P] | 1.98
62 | WIHCFEGVTAIIFCVALSDYDSVL [L22S] | 3.61
63 | WIHCFEGVTAIIFCVALSDYDVVL [L22V] | 4.39
64 | WIHCFEGVTAIIFCVALSDYDQVL [L22Q] | 3.71
65 | WIHCFEGVTAIIFCVALSDYDYVL [L22Y] | 2.52
66 | WIHCFEGVTAIIFCVALSDYDWVL [L22W] | 3.57
67 | WIHCFEGVTAIIFCVALSDYDLVQ [L24Q] | 1.69
68 | WIHCFEGVTAIIFCVALSDYDLVE [L24E] | 1.42
69 | WIHCFEGVTAIIFCVALSDYDLVG [L24G] | 3.06
70 | WIHCFEGVTAIIFCVALSDYDLVK [L24K] | 3.06
71 | WIHCFEGVTAIIFCVALSDYDLVH [L24H] | 3.37
72 | WIHCFEGVTAIIFCVALSDYDLVM [L24M] | 2.29
73 | WIHCFEGVTAIIFCVALSDYDLVR [L24R] | 3.04
74 | WIHCFEGVTAIIFCVALSDYDLVW [L24W] | 1.92
75 | WIHCFEGVTAIIFCVALSDYDLVA [L24A] | 1.85
76 | WIHCFEGVTAIIFCVALSDYDLVP [L24P] | 2.78
77 | WIHCFEGVTAIIFCVALSDYDLVN [L24N] | 4.75

Row | Variant | protein stability index
78 | WIHCFEGVTAIIFCVALSDYDLVI [L24I] | 3.87
79 | WIHCFEGVTAIIFCVALSDYDLVT [L24T] | 3.34
80 | WIHCFEGVTAIIFCVALSDYDLVV [L24V] | 2.12
81 | WIHCFEGVTAIIFCVALSDYDLVF [L24F] | 2.34
82 | WIHCFEGVTAIIFCVALSDYDLVD [L24D] | 2.92
83 | WIHCFEGVTAIIFCVALSDYDLNL [V23N] | 3.29
84 | WIHCFEGVTAIIFCVALSDYDLTL [V23T] | 3.6
85 | WIHCFEGVTAIIFCVALSDYDLHL [V23H] | 4
86 | WIHCFEGVTAIIFCVALSDYDLYL [V23Y] | 3.15
87 | WIHCFEGVTAIIFCVALSDYDLEL [V23E] | 2.71
88 | WIHCFEGVTAIIFCVALSDYDLFL [V23F] | 2.29
89 | WIHCFEGVTAIIFCVALSDYDLSL [V23S] | 2.21
90 | WIHCFEGVTAIIFCVALSDYDLIL [V23I] | 2.7
91 | WIHCFEGVTAIIFCVALSDYDLPL [V23P] | 2.28
92 | WIHCFEGVTAIIFCVALSDYDLRL [V23R] | 2.89
93 | WIHCFEGVTAIIFCVALSDYDLKL [V23K] | 3.57
94 | WIHCFEGVTAIIFCVALSDYDLCL [V23C] | 1.55
